In publication PMC2742162:

Key:
pro-N-cadherin (human) = pro-N-cadherin (human) (UniProt P19022); assay: co-IP
pro-E-cadherin (human) = pro-E-cadherin (human) (UniProt P12830); assay: co-IP
Sequence of UniProt P12830 (P12830 23-882): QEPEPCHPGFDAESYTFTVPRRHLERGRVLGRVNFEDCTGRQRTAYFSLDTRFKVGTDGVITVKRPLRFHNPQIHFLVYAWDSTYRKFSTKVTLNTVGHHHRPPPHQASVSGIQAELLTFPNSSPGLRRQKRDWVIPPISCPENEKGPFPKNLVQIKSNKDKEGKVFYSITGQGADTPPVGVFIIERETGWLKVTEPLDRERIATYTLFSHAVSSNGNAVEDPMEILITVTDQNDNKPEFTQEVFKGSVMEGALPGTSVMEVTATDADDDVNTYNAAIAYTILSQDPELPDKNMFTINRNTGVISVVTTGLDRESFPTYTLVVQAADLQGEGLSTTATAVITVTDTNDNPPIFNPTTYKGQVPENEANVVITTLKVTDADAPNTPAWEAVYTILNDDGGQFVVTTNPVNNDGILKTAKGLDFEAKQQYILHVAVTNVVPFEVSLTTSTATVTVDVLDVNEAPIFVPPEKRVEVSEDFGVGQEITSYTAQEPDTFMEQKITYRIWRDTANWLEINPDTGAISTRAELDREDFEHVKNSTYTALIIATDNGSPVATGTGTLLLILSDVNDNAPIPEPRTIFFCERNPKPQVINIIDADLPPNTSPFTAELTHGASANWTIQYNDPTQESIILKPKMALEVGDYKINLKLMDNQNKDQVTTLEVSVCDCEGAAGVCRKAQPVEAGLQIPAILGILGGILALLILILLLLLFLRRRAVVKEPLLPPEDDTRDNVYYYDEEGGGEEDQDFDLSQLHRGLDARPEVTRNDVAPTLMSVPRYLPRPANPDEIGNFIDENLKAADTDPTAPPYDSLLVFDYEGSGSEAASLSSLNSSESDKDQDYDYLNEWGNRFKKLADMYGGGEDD

Sequence of UniProt P19022 (P19022 26-906): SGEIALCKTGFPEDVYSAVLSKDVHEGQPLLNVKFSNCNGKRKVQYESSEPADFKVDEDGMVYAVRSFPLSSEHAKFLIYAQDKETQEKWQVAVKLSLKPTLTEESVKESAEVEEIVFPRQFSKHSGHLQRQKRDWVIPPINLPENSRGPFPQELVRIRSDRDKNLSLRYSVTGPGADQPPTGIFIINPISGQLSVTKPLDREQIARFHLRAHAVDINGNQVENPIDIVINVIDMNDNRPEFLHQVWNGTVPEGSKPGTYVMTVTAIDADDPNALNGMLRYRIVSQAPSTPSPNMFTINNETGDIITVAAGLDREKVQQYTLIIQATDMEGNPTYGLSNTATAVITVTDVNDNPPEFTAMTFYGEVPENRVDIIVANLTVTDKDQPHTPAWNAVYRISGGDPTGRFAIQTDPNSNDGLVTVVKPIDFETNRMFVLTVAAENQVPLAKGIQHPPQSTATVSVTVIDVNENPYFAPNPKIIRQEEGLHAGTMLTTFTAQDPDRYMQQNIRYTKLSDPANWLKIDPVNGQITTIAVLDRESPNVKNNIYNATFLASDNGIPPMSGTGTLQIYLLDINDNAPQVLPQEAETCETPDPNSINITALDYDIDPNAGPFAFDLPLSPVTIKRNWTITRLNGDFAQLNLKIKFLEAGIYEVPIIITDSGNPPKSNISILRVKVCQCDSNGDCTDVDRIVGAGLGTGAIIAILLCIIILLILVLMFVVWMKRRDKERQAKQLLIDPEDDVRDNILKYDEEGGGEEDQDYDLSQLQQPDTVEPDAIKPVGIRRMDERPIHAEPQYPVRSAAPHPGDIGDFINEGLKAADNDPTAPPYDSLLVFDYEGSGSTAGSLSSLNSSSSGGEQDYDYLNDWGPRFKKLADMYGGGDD

- percent of pro-cadherin molecules in a complex with α-catenin (pro-N-cadherin (human)): 92%
- percent of pro-cadherin molecules in a complex with α-catenin (pro-E-cadherin (human)): 81%
Substance: α-catenin (from UniProt P35221 1-906) (natural protein)
